Reference: article doi:10.1101/2022.11.10.516034 (bioRxiv, 2022)
Like-named read-outs stand apart in the source and are kept apart here.

B1: Twinkle C-terminal domain with linker (CTD, amino acids 360-684) (domain or fragment, human, UniProt Q96RR1 360-684, looked up)
chain: LPAWHKSIVSFRQLREEVLGELSNVEQAAGLRWSRFPDLNRILKGHRKGELTVFTGPTGSGKTTFISEYALDLCSQGVNTLWGSFEISNVRLARVMLTQFAEGRLEDQLDKYDHWADRFEDLPLYFMTFHGQQSIRTVIDTMQHAVYVYDICHVIIDNLQFMMGHEQLSTDRIAAQDYIIGVFRKFATDNNCHVTLVIHPRKEDDDKELQTASIFGSAKASQEADNVLILQDRKLVTGPGKRYLQVSKNRFDGDVGVFPLEFNKNSLTFSIPPKNKARLKKIKDDTGPVAKKPSSGKKGATTQNSEICSGQAPTPDQPDTSKRSK
B2: full-length (FL) human Twinkle (aa 43-684) (enzyme, UniProt Q96RR1 43-684, looked up)
chain: ETLQALDMPVLPVTATEIRQYLRGHGIPFQDGHSCLRALSPFAESSQLKGQTGVTTSFSLFIDKTTGHFLCMTSLAEGSWEDFQASVEGRGDGAREGFLLSKAPEFEDSEEVRRIWNRAIPLWELPDQEEVQLADTMFGLTKVTDDTLKRFSVRYLRPARSLVFPWFSPGGSGLRGLKLLEAKCQGDGVSYEETTIPRPSAYHNLFGLPLISRRDAEVVLTSRELDSLALNQSTGLPTLTLPRGTTCLPPALLPYLEQFRRIVFWLGDDLRSWEAAKLFARKLNPKRCFLVRPGDQQPRPLEALNGGFNLSRILRTALPAWHKSIVSFRQLREEVLGELSNVEQAAGLRWSRFPDLNRILKGHRKGELTVFTGPTGSGKTTFISEYALDLCSQGVNTLWGSFEISNVRLARVMLTQFAEGRLEDQLDKYDHWADRFEDLPLYFMTFHGQQSIRTVIDTMQHAVYVYDICHVIIDNLQFMMGHEQLSTDRIAAQDYIIGVFRKFATDNNCHVTLVIHPRKEDDDKELQTASIFGSAKASQEADNVLILQDRKLVTGPGKRYLQVSKNRFDGDVGVFPLEFNKNSLTFSIPPKNKARLKKIKDDTGPVAKKPSSGKKGATTQNSEICSGQAPTPDQPDTSKRSK

Columns and labels:
[1] = target: the molecule itself; test: SEC
[2] = target: the molecule itself; test: SEC; remark: listed apart in the source

Row | Protein | stoichiometry N [1] [subunit] | stoichiometry N [2]
1 | B1 | ~12 | 
2 | B2 |  | ~7
